In article PMC12024540, “Peptide-Based Regulation of TNF-α-Mediated Cytotoxicity” (Biomolecules, 2025):
Where no end group is shown, it is not given here.

Tests used:
[1] = target: T1, Human TNFR1 (soluble) recombinant protein (human, UniProt P19438 42-181, fluorescent label from the Monolith Protein Labeling Kit RED-NHS 2nd Generation (labelled target in MST)); test: MST; labelled TNFR1 or TNFR2 (RED-NHS 2nd Generation) at 20 nM, peptide titrated in 16 serial dilutions, PBS, 20 min incubation in the dark, Monolith NT.115 Pico, medium MST power; details: both partners purified
T1 construct: human TNF receptor 1, soluble recombinant form; also called TNF receptor 1; sTNFR1; source: bought: PeproTech
T1 sequence: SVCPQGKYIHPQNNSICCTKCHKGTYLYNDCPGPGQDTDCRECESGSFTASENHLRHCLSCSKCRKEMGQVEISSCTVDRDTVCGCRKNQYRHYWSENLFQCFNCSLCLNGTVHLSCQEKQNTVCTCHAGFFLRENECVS

[2] = target: T2, Human TNFR2 (soluble) recombinant protein (human, UniProt P20333 33-205, fluorescent label from the Monolith Protein Labeling Kit RED-NHS 2nd Generation (labelled target in MST)); test: as above; details: both partners purified
T2 construct: human TNF receptor 2, soluble recombinant form; also called TNF receptor 2; p80; source: bought: PeproTech
T2 sequence: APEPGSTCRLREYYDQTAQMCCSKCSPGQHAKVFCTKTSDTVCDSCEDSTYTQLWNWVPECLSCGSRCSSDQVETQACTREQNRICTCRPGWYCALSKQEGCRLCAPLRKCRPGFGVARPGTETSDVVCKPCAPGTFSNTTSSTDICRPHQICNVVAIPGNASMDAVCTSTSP

B1: OB5 peptide (peptide)
peptide: NHQVEEQLEWLSQRA-NH2
notes: 15-residue stretch of mouse TNF-α predicted with Rosetta Peptiderive from the mouse TNF-α-human TNFR1 complex; source: synthetic peptide (SPPS, Rink amide resin, HPLC purified)
Q: B1 was tested. Which Kd [1] did it give?
A: 0.204 µM

B2: OB6 peptide (peptide)
peptide: NPQAEGQLQWLNRRA
notes: 15-residue stretch of human TNF predicted with Rosetta Peptiderive from the TNF-TNFR2 complex; Synthesised on Rink amide resin, so probably with a C-terminal amide (stated only for OB5); source: synthetic peptide (SPPS, Rink amide resin, HPLC purified)
Q: Which Kd [2] does the source give for B2 here?
A: 3.9 µM

B3: OB7 peptide (peptide)
peptide: VLLTHTISRIAVSYQTKVNLL
notes: Synthesised on Rink amide resin, so probably with a C-terminal amide (stated only for OB5); 21 residues as printed; source: synthetic peptide (SPPS, Rink amide resin, HPLC purified)
Q: For B3, which Kd [1] is on record?
A: 8.6 µM
